Molecular target: mosPTP-1 including the transmembrane region (91bp-2202bp), Aedes aegypti AAEL013105, on S2 cells (Aedes aegypti)
Experiment: flow cytometry on cells

## mosGCTL-1 (mosquito Galactose-specific binding C-Type Lectin), Aedes aegypti AAEL000563 (natural protein)
  percent of mosPTP-1-expressing cells that bound mosGCTL-1: > 40%

— publication PMC2954371
